Experimental data: patent US20230234992A1

Target: S Stabilizing Construct #21, CoV2_S2_1_pross mutant Spike (S) protein (SARS-CoV-2) (UniProt P0DTC2)

For CR3022 antibody (RBD Specific Antibody), the fold affinity decrease was 17 fold.
